Test results taken from PMC10425332, “Programming conformational cooperativity to regulate allosteric protein-oligonucleotide signal transduction”.

What was measured:
[1] = biological target: T1, thrombin (UniProt P00734;P00734 328-363;364-622); assay: PAGE and FAM/BHQ1 fluorescence (release of strand D); Mg2+; indirect read-out; complexes annealed in 1x TAE/Mg2+ buffer, DNA complex about 0.5-0.6 uM; thrombin trigger 2 h at room temperature (cell experiments); pH and Mg2+ concentration n
[2] = biological target: T1, thrombin; assay: PAGE (release of DGFP); Mg2+; indirect read-out; complexes annealed in 1x TAE/Mg2+ buffer, DNA complex about 0.5-0.6 uM; thrombin trigger 2 h at room temperature (cell experiments); pH and Mg2+ concentration n
[3] = biological target: T1, thrombin; assay: PAGE and fluorescence (release of strand D); Mg2+; indirect read-out; complexes annealed in 1x TAE/Mg2+ buffer, DNA complex about 0.5-0.6 uM; thrombin trigger 2 h at room temperature (cell experiments); pH and Mg2+ concentration n

B1: complex CDAB (15Apt and 29Apt thrombin aptamers on B and A) (structured_DNA)
DNA 1: AATGGTCCTATGATTCCGTTTTTTTTTTTTGTCACTAGCTACTAGGTAGCTAGTGACGTTATTTTTTTTATGAGAGAGAGTGTGTCC
DNA 2: TAACGTCACTAGCTACCTTTTTTTTTTTTTTTTTTTTTTTTTTTTTTTTTTTTTTTT
DNA 3: GGACACACTCTCTCTCATTTTAGTCCGTGGTAGGGCAGGTTGGGGTGACT
DNA 4: GGTTGGTGTGGTTGGTTTCGGAATCATAGGACCATT
[1]
  binding result: binds

B2: complex-G C3DGFPAB (T1 3 nt, T2 12 nt) (structured_DNA)
DNA 1: AATGGTCCTATGATTCCGTTTTTTTTTTTTTGCACGCTGCCGTTACGGCAGCGTGCAGCTCTTTTTTTTATGAGAGAGAGTGTGTCC
DNA 2: GAGCTGCACGCTGCCGTCTTTTTTTTTTTTTTTTTTTTTTTTTTTTTTTTTTTTTTTTT
DNA 3: B1 DNA 3
DNA 4: B1 DNA 4
[2]
  binding result: binds

B3: single-trigger-site complex with E-29apt (structured_DNA)
DNA 1: B1 DNA 1
DNA 2: B1 DNA 2
DNA 3: GGACACACTCTCTCTCATTTTAGTCCGTGGTAGGGCAGGTTGGGGTGACTTTTCGGAATCATAGGACCATT
[3]
  binding result: binds
